Measurements published in patent publication US20050266008A1 (Bristol-Myers Squibb, published 2005).

T1: IRTA2 expressed on transfected CHO cells (full-length transmembrane form with N-terminal epitope tag) (human, UniProt Q96RD9 16-977)
T1 construct: also called CHO line expressing IRTA2
T1 chain: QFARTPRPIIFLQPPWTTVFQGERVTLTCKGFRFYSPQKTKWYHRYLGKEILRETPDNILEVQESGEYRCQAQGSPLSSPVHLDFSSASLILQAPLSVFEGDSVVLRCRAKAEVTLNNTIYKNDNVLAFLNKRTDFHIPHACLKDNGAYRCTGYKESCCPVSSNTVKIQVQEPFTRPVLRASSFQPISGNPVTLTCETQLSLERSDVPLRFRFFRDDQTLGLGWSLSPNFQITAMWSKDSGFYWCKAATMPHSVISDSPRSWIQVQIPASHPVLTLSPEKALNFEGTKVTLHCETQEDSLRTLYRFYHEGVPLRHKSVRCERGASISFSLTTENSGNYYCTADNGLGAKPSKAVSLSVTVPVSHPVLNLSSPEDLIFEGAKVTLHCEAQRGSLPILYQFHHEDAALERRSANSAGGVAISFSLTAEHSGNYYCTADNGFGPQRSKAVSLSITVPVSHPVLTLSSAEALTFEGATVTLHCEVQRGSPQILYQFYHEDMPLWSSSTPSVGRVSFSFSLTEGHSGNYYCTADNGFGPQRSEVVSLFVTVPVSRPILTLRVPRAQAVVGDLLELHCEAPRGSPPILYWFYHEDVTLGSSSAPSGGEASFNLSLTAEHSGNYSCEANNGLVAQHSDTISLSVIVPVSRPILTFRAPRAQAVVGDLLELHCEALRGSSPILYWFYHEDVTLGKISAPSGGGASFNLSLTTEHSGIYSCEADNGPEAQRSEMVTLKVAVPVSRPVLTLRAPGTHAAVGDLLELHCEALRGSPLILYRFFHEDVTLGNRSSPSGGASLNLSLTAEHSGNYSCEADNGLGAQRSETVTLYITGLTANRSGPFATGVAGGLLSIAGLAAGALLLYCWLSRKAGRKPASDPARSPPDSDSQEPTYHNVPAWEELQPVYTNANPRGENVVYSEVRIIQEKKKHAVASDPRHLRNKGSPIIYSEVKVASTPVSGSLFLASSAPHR

T2: IRTA1 expressed on transfected CHO cells (full-length transmembrane form with N-terminal epitope tag) (human, UniProt Q96PJ5 20-515)
T2 construct: also called CHO line expressing IRTA1
T2 sequence: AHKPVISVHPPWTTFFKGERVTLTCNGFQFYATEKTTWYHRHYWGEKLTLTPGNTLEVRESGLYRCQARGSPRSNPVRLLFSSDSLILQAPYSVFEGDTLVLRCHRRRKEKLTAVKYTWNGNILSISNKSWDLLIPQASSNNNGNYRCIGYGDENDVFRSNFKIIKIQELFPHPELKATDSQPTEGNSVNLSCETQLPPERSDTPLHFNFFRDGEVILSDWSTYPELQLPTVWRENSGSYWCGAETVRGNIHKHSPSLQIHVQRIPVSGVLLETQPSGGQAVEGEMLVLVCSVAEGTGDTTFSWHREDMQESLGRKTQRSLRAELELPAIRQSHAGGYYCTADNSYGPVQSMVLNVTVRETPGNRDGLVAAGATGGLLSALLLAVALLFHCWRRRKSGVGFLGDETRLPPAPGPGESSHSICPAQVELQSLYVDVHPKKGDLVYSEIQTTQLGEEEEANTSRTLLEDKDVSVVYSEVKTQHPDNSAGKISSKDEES

T3: IRTA3 expressed on transfected CHO cells (full-length transmembrane form with N-terminal epitope tag) (human, UniProt Q96P31 18-734)
T3 construct: also called CHO line expressing IRTA3
T3 sequence: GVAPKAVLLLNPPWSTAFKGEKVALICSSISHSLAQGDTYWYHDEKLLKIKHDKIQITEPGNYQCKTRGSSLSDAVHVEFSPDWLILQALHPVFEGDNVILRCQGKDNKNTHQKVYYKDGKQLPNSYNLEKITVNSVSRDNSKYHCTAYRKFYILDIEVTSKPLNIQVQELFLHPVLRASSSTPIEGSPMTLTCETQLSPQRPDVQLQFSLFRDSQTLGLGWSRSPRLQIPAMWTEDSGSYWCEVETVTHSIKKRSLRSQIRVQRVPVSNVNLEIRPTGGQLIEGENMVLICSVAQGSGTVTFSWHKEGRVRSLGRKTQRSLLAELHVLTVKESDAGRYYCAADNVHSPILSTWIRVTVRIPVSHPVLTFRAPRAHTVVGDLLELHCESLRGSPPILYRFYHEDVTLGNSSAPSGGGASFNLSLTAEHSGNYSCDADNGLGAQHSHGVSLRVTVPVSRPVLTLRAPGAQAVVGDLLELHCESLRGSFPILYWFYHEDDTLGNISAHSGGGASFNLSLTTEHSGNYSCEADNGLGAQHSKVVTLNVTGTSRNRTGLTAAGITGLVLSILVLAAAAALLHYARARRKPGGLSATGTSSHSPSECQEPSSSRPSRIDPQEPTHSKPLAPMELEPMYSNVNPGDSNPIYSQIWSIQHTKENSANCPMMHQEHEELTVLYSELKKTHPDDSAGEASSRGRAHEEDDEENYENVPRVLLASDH

T4: IRTA4 expressed on transfected CHO cells (full-length transmembrane form with N-terminal epitope tag) (human, UniProt Q96LA5 20-508)
T4 construct: also called CHO line expressing IRTA4
T4 sequence: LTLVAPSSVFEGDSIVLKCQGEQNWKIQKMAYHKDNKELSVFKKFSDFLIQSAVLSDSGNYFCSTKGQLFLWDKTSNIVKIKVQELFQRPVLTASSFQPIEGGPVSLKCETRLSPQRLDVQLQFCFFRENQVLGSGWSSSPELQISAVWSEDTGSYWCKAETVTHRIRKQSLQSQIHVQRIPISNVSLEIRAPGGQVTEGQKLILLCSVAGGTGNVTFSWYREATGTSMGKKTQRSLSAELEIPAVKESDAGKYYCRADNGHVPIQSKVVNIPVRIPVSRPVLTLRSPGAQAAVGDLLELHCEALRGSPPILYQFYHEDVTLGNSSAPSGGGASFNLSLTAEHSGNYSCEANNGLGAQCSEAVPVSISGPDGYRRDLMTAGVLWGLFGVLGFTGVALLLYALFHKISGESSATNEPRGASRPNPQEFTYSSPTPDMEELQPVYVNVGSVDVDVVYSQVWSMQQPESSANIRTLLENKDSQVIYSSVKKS

T5: IRTA5 expressed on transfected CHO cells (full-length transmembrane form with N-terminal epitope tag) (human, UniProt Q96LA6 17-429)
T5 construct: Neither the signal peptide limits nor the tag is stated; also called CHO line transfected with IRTA5; human IRTA-5
T5 sequence: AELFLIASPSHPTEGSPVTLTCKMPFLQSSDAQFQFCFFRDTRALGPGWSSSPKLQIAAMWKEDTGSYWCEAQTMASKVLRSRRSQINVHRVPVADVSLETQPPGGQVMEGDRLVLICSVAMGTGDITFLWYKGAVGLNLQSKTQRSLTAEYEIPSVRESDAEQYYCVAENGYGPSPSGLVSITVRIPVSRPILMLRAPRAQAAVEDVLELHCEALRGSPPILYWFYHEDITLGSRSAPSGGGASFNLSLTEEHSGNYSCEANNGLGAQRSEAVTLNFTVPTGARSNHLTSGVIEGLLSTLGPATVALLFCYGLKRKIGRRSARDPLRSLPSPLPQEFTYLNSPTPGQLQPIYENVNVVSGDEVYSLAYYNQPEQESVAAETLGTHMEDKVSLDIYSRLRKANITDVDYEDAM

T6: IRTA5 protein as naturally expressed on human peripheral blood B lymphocytes and B cell tumor lines (human, UniProt Q96LA6 17-429)
T6 construct: Endogenous protein on untransfected human cells; also called IRTA-5 on CD19+ B cells, Daudi, Ramos, SU-DHL-4
T6 sequence: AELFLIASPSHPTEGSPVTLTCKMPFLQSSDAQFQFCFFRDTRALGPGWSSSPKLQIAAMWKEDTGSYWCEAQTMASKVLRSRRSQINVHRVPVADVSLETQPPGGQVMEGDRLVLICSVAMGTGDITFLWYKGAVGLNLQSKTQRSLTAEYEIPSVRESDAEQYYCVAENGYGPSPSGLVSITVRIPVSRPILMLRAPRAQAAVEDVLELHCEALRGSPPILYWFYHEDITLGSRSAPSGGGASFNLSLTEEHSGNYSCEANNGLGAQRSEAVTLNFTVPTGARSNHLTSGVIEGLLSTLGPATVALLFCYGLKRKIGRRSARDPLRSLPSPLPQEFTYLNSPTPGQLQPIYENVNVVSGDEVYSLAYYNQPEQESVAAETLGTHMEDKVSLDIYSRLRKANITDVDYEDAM


Experiments:
[1] = target: T1, IRTA2 expressed on transfected CHO …; experiment: flow cytometry on IRTA2-CHO cells, FITC-labeled anti-human IgG
Excerpt: (§1) Chinese hamster ovary (CHO) cell lines that express one of each of the five IRTA proteins at the cell surface were developed and used to determine the specificity of the IRTA5 HuMAbs by flow cytometry. CHO cells were transfected with expression plasmids containing full length cDNA encoding transmembrane forms of IRTA1, IRTA2, IRTA3, IRTA4, or IRTA5. In addition, the transfected proteins contained an epitope tag at the N-terminus for detection by an antibody specific for the epitope. Binding of the seven anti-IRTA5 HuMAbs was assessed by incubating the transfected cells with each of the IRTA5 Abs at a concentration of 10 μg/ml. The cells were washed and binding was detected with a FITC-labeled anti-human IgG Ab. A murine anti-epitope tag Ab, followed by labeled anti-murine IgG, was used as the positive control. Non-specific human and murine Abs were used as negative controls. The results are depicted in FIG. 9. The IRTA5 HuMAbs bound to the CHO line transfected with IRTA5 but not to CHO lines expressing IRTA1, 2, or 4 as measured by the mean fluorescent intensity (MFI) of staining.

[2] = target: T2, IRTA1 expressed on transfected CHO …; experiment: flow cytometry on IRTA1-CHO cells, FITC-labeled anti-human IgG
Excerpt: as §1

[3] = target: T7, purified recombinant human IRTA5 fusion protein (human); experiment: Biacore SPR; IRTA5 fusion protein amine-coupled to CM5 chip, antibody flowed at 267 nM, 1:1 Langmuir fit
T7 construct: Amine-coupled to a CM5 chip in the Biacore kinetics; also called recombinant IRTA5 fusion protein
Description: Anti-IRTA5 antibodies were characterized for affinities and binding kinetics by Biacore analysis (Biacore AB, Uppsala, Sweden). Purified recombinant human IRTA5 fusion protein was covalently linked to a CM5 chip (carboxy methyl dextran coated chip) via primary amines, using standard amine coupling chemistry and kit provided by Biacore. Binding was measured by flowing the antibodies in HBS EP buffer (provided by BIAcore AB) at a concentration of 267 nM at a flow rate of 50 μl/min. The antigen-ssociation antibodies association kinetics was followed for 3 minutes and the dissociation kinetics was followed for 7 minutes. The association and dissociation curves were fit to a 1:1 Langmuir binding model using BlAevaluation software (Biacore AB). To minimize the effects of avidity in the estimation of the binding constants, only the initial segment of data coressponding to association and dissociation phases were used for fitting.

[4] = target: T3, IRTA3 expressed on transfected CHO …; experiment: flow cytometry on transfected CHO cells
Excerpt: as §1

[5] = target: T4, IRTA4 expressed on transfected CHO …; experiment: flow cytometry on IRTA4-CHO cells, FITC-labeled anti-human IgG
Excerpt: as §1

[6] = target: T5, IRTA5 expressed on transfected CHO …; experiment: flow cytometry on IRTA5-CHO cells, antibody at 10 µg/ml, FITC-labeled anti-human IgG; the log y axis has no label on the sheet (MFI per the text)
Excerpt: as §1

[7] = target: T6, IRTA5 protein as naturally expressed on …; experiment: two-colour flow cytometry on human PBMC: biotinylated antibody plus FITC-streptavidin (FL1) against PE anti-CD19 (FL2)
Description: CD19 is a cell surface marker that can be used to distinguish peripheral blood B lymphocytes. Human peripheral blood mononuclear cells were incubated with biotinylated 2G5, biotinylated 7G8, or an isotype control biotinylated human Ab. Cells were washed and were incubated with FITC-labeled streptavidin together with a phycoerythrin-labeled anti-CD19 antibody. Cells were washed and analyzed by flow cytometry. The results are depicted in FIG. 10A. Lymphocytes were gated as black “dots” and monocytes were gated as grey “dots”. Wavelengths were selected to screen for FITC (FL 1) and phycoerythrin (FL2) signaling. […] 2G5+ or 7G8+ cells (ordinate) were also predominantly CD19+, localizing to the double-positive, upper right quadrant.

[8] = target: T6, IRTA5 protein as naturally expressed on …; experiment: flow cytometry on Daudi and Ramos cells, PE anti-human secondary antibody
Description: The cell lines were incubated with each of the IRTA5 HuMAbs or a control human antibody, washed and detected by a phycoerythrin-labeled anti-human secondary antibody. […] The remaining 6 IRTA5 HuMAbs show a similar binding pattern (data not shown).

binding result [1]	binding result [2]	Kd [3]	koff [3]	kon [3]	binding result [4]	binding result [5]	binding result [6]	binding result [7]	binding result [8]	Binder
no binding (tested: 10 µg/ml)	no binding (tested: 10 µg/ml)	16.8 nM	0.00121 s⁻¹	72000 M⁻¹ s⁻¹	no binding	no binding (tested: 10 µg/ml)	binds	binds	–	human monoclonal antibody 7G8 (antibody, V domains shown, Fully human IgG with kappa light chain from an HCo7 HuMab Mouse hybridoma; also called IRTA5 HuMAb 7G8; biotinylated 7G8) VH: DVHLVQSGGGLVHPGGSLRLSCAGSGFTFSTYTMHWIRQAPGKDLEWVSAIGTGGGTDYADSVKGRFTISRDNAKNSLYLQMNSLRAEDMAVYYCAREVYWYFDLWGRGTLVTVSS VL: not shown
no binding (tested: 10 µg/ml)	no binding (tested: 10 µg/ml)	0.028 nM	4.3e-06 s⁻¹	152000 M⁻¹ s⁻¹	no binding	no binding (tested: 10 µg/ml)	binds	binds	–	human monoclonal antibody 2G5 (antibody, V domains shown, Fully human IgG with kappa light chain from an HCo7 HuMab Mouse hybridoma; also called IRTA5 HuMAb 2G5; biotinylated 2G5) VH: QVQLVESGGGVVQPGRSLRLSCAASGFTFSDYGMHWVRQAPGKGLEWVAVIWYDGNNKYYADSVKGRFTISRDNSKNTLYLQMNSLRAEDTAVYYCARDWGRAFDIWGQGTMVTVSS VL: EIVLTQSPATLSLSPGERATLSCRASQSVSSYLAWYQQKPGQAPRLLIYDASNRATGIPARFSGSGSGTDFTLTISSLEPEDFALYYCQQLNNWPPYTFGQGTKLEIK
no binding (tested: 10 µg/ml)	no binding (tested: 10 µg/ml)	0.035 nM	8.7e-06 s⁻¹	252000 M⁻¹ s⁻¹	no binding	no binding (tested: 10 µg/ml)	binds	–	binds	human monoclonal antibody 5A2 (antibody, V domains shown, Fully human IgG with kappa light chain from an HCo7 HuMab Mouse hybridoma) VH: QVQVVESGGGVVQPGRSLRLSCAASGFTFSNYGMHWVRQAPGKGLEWVAGIWYDGSNKYYADSVKGRFTISRDNSKNTLYLQMNSLRAEDTAVYYCARESPNFDYWGQGTLVTVSS VL: EIVLTQSPATLSLSPGERATLSCRASQSVSSYLAWYQQKPGQAPRLLIYDASNRATGIPARFSGSGSGTDFTLTISSLEPEDFAVYYCQQRNNWPPWTFGQGTKVEIK
